# What was measured:
# [1] = molecular target: Insulin Receptor; test: SPR; data not shown
# [2] = molecular target: CI-MPR receptor; test: CIMPR binding assay, PPT1 conditioned media, curves starting at 25 nM, bound PPT1 activity; the table prints no units, units of the axes
# [3] = molecular target: CI-MPR receptor; test: CIMPR binding assay, PPT1 conditioned media, dilution starting at 50 nM, bound PPT1 activity; the table prints no units, units of the axes
Substance,Kd [1] [nM],Bmax [2] [nmol/mL/h],Kd [2] [nM],Bmax [3] [nmol/mL/h],Kd [3] [nM]
Insulin (from UniProt P01308 25-54; P01308 90-110) (ligand),8,–,–,–,–
PPT1 control (enzyme),–,54.5,2.71,54.4,2.7

# From patent US20240091321A1
